Test results: the supplement of paper PMC9732359
± gives the uncertainty stated by the source.

Test: protein stability index of a GFP-peptide fusion (yeast GPS) (PSI 1-4); higher = more stable; sorted into four equal gates, so the index is relative within each strain
In short: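 Sequencing reads from sorted gates were used to score each peptide. The library consisted of tiled 17-residue yeast protein peptides fused downstream of GFP on a Cherry-expressing plasmid, pooled and carried in yeast. Mid-log cultures in leucine-free medium were split into four equal gates by GFP/Cherry ratio, and each gate's plasmids were PCR-amplified and Illumina-sequenced. The protein stability index adds up, over all gates, the read frequency multiplied by the gate number.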

Sequence | protein stability index (doa10∆) | protein stability index (pdr5∆) | protein stability index (san1∆) | protein stability index (ubr1∆)
NVSDEQLSNWQKIRNSE [ITC1] | 3.15 ± 0.071 | 3.2 ± 0.095 | 2.94 ± 0.1 | 2.98 ± 0.087
NLLESITKLLEINLSKI [YCS4] | 2.73 ± 0.057 | 2.55 ± 0.043 | 2.94 ± 0.036 | 2.77 ± 0.034
KALILAPTRELVQQIQK [PRP28] | 2.67 ± 0.087 | 2.82 ± 0.055 | 2.75 ± 0.073 | 3 ± 0.069
DLASSKEVLAKIVDLLA [RPN5] | 2.85 ± 0.21 | 3.43 ± 0.24 | 2.98 ± 0.091 | 2.97 ± 0.11
SLDEILLPANLLSLNSV [SRP68] | 3.13 ± 0.058 | 3.15 ± 0.058 | 3.14 ± 0.05 | 3.08 ± 0.031
SIQMEFMLRKQDPKTLV [SSN2] | 1.73 ± 0.066 | 2 ± 0.049 | 1.82 ± 0.08 | 2.05 ± 0.045
NINEVKKASDLVDTPSN [NUT1] | 3.14 ± 0.083 | 2.97 ± 0.085 | 3.23 ± 0.065 | 3.27 ± 0.07
RDIEKITSLYALIRRDF [CDC53] | 2.1 ± 0.035 | 1.89 ± 0.03 | 1.84 ± 0.05 | 1.75 ± 0.021
SIGEPATQMTLNTFHFA [RPO21] | 2.63 ± 0.091 | 3.04 ± 0.11 | 3.04 ± 0.15 | 2.75 ± 0.12
SQVLDLAKKIAPGKVEL [SMC2] | – | 3.28 ± 0.19 | – | 2.84 ± 0.2
LSEFGIKKMLHLVWMKG [YCS4] | 3.17 ± 0.17 | 3.47 ± 0.11 | 2.31 ± 0.15 | 3.29 ± 0.17
RNVEQKLNELDELILEA [NNF1] | 3.3 ± 0.062 | 3.29 ± 0.059 | 3.22 ± 0.039 | 3.4 ± 0.046
KAKIIPGNGKHASENIS [SIR4] | 2.61 ± 0.11 | 3.04 ± 0.13 | 2.67 ± 0.13 | 2.81 ± 0.12
RERDITSLFHKFILSGF [RRI2] | 1.71 ± 0.048 | 2.07 ± 0.045 | 2.23 ± 0.063 | 2.09 ± 0.049
SYVEPVLVASAKGLQTV [RPL31A] | 2.2 ± 0.059 | 2.33 ± 0.08 | 2.23 ± 0.065 | 2.22 ± 0.082
QSSLSKVDIPLEVVQYI [NUT2] | 2.69 ± 0.081 | 2.16 ± 0.086 | 2.24 ± 0.083 | 2.29 ± 0.071
NKKSEENEMIKPMNKGQ [SWP82] | 3.09 ± 0.18 | 3.41 ± 0.095 | 3.39 ± 0.067 | 3.39 ± 0.26
CIFNFLQQQTPVTIWLF [SME1] | 1.18 ± 0.069 | 1.47 ± 0.066 | 1.25 ± 0.084 | 1.15 ± 0.052
IDWASPEYGRIIASASY [YGL100W/SEH1] | 2.8 ± 0.064 | 3.16 ± 0.053 | 3.09 ± 0.054 | 2.71 ± 0.055
DDLALPYQHPPNIFPNL [ITC1] | 3.37 ± 0.097 | 3.43 ± 0.12 | 3.43 ± 0.074 | 3.21 ± 0.046
KTSKDIAVLRSKEWFQL [FAS1] | 2.01 ± 0.033 | 2.07 ± 0.031 | 1.91 ± 0.046 | 2.25 ± 0.032
HVLKKNPLKNKQVLLRL [RPL4A] | 1.43 ± 0.15 | 1.79 ± 0.086 | 1.3 ± 0.13 | 2.38 ± 0.088
SGKETASAPLCSPKLPV [DLS1] | 2.89 ± 0.049 | 3.13 ± 0.05 | 3.15 ± 0.039 | 3.14 ± 0.034
RGFKVGLVCADTFRAGA [SRP54] | 2.19 ± 0.22 | 2.25 ± 0.081 | – | 2.23 ± 0.11
IKSGVAKLESLLENSVD [MTW1] | 3.29 ± 0.098 | 3.4 ± 0.091 | 3.32 ± 0.055 | 3.4 ± 0.075
LTLTDSQLAQVAAFVNN [BRR2] | 2.14 ± 0.084 | 2.18 ± 0.099 | 2.37 ± 0.15 | 2.69 ± 0.061
